Test results as given in patent US20210324051A1 (published 2021).

T1: Ravn strain cleaved MARV GP ectodomain (Marburg virus, Ravn strain, UniProt Q1PDC7 19-648)
T1 chain: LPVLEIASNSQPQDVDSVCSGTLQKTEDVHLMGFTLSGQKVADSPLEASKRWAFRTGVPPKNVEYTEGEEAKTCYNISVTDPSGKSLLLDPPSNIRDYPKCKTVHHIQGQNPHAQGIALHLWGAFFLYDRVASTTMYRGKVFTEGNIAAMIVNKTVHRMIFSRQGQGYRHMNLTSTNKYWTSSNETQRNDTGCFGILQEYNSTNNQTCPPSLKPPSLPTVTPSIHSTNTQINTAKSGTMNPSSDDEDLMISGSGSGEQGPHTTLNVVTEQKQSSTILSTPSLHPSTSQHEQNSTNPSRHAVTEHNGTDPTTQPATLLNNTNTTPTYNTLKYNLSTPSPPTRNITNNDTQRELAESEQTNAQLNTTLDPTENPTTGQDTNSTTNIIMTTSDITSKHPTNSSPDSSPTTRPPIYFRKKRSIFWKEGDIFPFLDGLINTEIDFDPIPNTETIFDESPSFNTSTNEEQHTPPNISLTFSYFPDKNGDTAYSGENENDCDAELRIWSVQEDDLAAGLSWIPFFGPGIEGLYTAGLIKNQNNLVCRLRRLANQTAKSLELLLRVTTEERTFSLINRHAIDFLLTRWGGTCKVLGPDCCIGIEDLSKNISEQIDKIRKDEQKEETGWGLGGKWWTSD

T2: EBOV Mayinga strain cleaved GP ectodomain (Ebola virus, Mayinga strain, UniProt Q05320 33-650)
T2 chain: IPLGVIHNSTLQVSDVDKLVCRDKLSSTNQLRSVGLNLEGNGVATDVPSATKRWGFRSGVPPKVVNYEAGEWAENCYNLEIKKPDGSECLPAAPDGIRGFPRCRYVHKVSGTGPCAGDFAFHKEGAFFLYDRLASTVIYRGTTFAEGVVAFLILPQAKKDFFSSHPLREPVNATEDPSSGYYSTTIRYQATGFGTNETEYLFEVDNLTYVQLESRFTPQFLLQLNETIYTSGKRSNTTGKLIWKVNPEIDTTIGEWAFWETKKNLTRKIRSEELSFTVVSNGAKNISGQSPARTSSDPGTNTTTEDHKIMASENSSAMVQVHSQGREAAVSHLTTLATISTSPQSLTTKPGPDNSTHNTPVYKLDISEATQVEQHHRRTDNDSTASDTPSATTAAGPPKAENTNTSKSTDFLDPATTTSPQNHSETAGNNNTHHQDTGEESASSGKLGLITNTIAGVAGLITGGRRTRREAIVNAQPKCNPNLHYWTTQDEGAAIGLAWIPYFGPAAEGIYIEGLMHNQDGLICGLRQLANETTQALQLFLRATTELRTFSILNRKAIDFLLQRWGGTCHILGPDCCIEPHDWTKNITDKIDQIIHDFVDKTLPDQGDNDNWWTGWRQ

T3: EBOV Mayinga strain GP ectodomain containing the glycan cap and mucin-like domain (Ebola virus, Mayinga strain, UniProt Q05320 33-650)
T3 chain: T2 chain

T4: Angola strain MARV GP ectodomain containing the mucin-like domain (Marburg virus, Angola strain, UniProt Q1PD50 19-648)
T4 chain: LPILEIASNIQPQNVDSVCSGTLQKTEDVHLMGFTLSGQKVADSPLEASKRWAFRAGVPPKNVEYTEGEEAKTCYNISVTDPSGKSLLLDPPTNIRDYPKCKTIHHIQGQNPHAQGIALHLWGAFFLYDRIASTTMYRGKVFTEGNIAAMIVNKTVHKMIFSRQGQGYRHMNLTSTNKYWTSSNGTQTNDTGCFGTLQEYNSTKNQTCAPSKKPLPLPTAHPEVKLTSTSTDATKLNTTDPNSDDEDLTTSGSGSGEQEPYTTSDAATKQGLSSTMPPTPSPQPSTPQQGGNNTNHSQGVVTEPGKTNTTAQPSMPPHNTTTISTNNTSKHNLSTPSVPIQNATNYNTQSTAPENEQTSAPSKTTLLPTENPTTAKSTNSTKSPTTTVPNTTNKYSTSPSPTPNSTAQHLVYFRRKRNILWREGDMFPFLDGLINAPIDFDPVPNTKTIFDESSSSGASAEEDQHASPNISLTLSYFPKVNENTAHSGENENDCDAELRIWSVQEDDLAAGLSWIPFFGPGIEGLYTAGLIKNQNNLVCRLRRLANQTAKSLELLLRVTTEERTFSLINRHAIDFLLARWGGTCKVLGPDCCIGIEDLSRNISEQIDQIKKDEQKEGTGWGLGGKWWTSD

B1: MR78 human monoclonal antibody (antibody, V domains shown)
VH: QLQLQESGPGLVKPSETLSLTCTVSGGSISSSSYYWGWIRQPPGKGLEWIGSVYYSGGASYNPSLKSRATISVDTSKNQFSLNLDSVSAADTAIYYCASIYGSGTFYYYFYMDVWGKGSTVTVSS
VL: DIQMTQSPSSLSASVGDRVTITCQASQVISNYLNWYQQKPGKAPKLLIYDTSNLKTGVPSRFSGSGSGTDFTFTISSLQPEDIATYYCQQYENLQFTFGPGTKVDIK
B2: MR201 (antibody, V domains shown)
VH: QLQLQESGPGLVKPSETLFLSCAVSGGSIAGSTHYWGWIRQPPGKGLEWIGSISESGSTYHNPSLKSRVTISVDTSKNYFSLNLSSVTAADTAVYYCARIVGQSGTFIYYYYAMDVWGTGTLVTVSS
VL: DIQLTQSPSFLSASVGDRVTITCRASQGISSYLAWYQQKPGKAPKLLIYAASTLQRGVPSRFSGSGSGTEFTLTISSLQPEDSATYYCQQLNSYLALIFGGGT

Columns and labels:
Assay in all cases: ELISA
[1] = target: Angola strain MARV GP ectodomain lacking residues 257-425 of the mucin-like domain (Marburg virus, Angola strain, UniProt Q1PD50 19-648)
[2] = target: EBOV Mayinga strain GP ectodomain lacking residues 314-462 of the mucin-like domain (Ebola virus, Mayinga strain, UniProt Q05320 33-650)
[3] = target: T1, Ravn strain cleaved MARV GP ectodomain
[4] = target: T2, EBOV Mayinga strain cleaved GP …
[5] = target: T3, EBOV Mayinga strain GP ectodomain …
[6] = target: T4, Angola strain MARV GP ectodomain …

Binder	EC50 [1] [µg/mL]	EC50 [2] [µg/mL]	EC50 [3] [µg/mL]	EC50 [4] [µg/mL]	EC50 [5] [µg/mL]	EC50 [6] [µg/mL]
B1	2.3	> 1000	1.1	107	> 1000	1.4
B2	1.9	> 1000	0.5	> 1000	> 1000	1.5
